The values that follow come from article PMC6054995.

For the assay, the target named is Marchantia polymorpha 3-phosphoglycerate dehydrogenase, recombinant, without the transit peptide (Marchantia polymorpha). Kind of assay: SEC; HiPrep 16/60 Sephacryl S-300 HR, 0.5 mL/min, 100 mM sodium phosphate buffer (pH 9.0); mass estimated from a standard curve of thyroglobulin, apoferritin, beta-amylase, albumin and carbonic anhydrase.

The stoichiometry N is a count of units in the complex or per binding partner. “Marchantia polymorpha 3-phosphoglycerate dehydrogenase, recombinant, without the transit peptide (enzyme)”: the stoichiometry N was 4.
